Laboratory results reported in the supplement of paper PMC11780869.

Test system: Bacillus subtilis
Assay: cleaved RNA product abundance (RNA/gDNA barcode ratio) relative to median wild-type variant (ratio to wild type); higher = more accumulation of the downstream cleavage product
Conditions: experiment (reporter, strain, medium): exp 8a: truncated aprE reporter, strain BJT201 with 2% xylose (RNase J1 expressed); cleavage site: glnRA (positions -5 to +31 mutated)
Method in brief: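 Cleaved product abundance is expressed as the RNA:gDNA barcode ratio per construct, scaled to the median construct carrying the unmutated site. The constructs were barcoded, mutagenized RNase Y cleavage-site windows in truncated aprE or tetM reporter mRNAs integrated into the B. subtilis chromosome. Cultures grew in LB at 37°C from OD600 0.0003 to 0.3 before cleaved RNA was gel-selected and barcode-sequenced.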

Row | Sequence | cleaved RNA product abundance
1 | CGACATGTCCCGCTTCTTTCATTAATCCATTTGCAACTGTTTTGCTATATACATTTACCTTTTAAGAGGAGGAAT | 0.236
2 | CGACATGTCCCGCTTCTTTCATTAATCCCGTTAGCAACTGTTTTGCTATATACATTTACCTTTTAAGAGGAGGAA | 1.01
3 | CGACATGTCCCGCTTCTTTCATTAATCCCTAAGCAACTGTTTTGCTATATACATTTACCTTTTAAGAGGAGGAAT | 0.229
4 | CGACATGTCCCGCTTCTTTCATTAATCCCTTAACAACTGTATTGCTATATACATTTACCTTTTAAGAGGAGGAAT | 0.142
5 | CGACATGTCCCGCTTCTTTCATTAATCCCTTACCAACTGTTTTGCTATATACATTTACCTTTTAAGAGGAGGAAT | 0.187
6 | CGACATGTCCCGCTTCTTTCATTAATCCCTTAGAAACTGTTTTGCTATATACATTTACCTTTTAAGAGGAGGAAT | 0.173
7 | CGACATGTCCCGCTTCTTTCATTAATCCCTTAGCAACTATTTTGCTATATACATTTACCTTTTAAGAGGAGGAAT | 0.323
8 | CGACATGTCCCGCTTCTTTCATTAATCCCTTAGCAACTCTTTTGCTATATACATTTACCTTTTAAGAGGAGGAAT | 0.0915
9 | CGACATGTCCCGCTTCTTTCATTAATCCCTTAGCAACTGATTTGCTATATACATTTACCTTTTAAGAGGAGGAAT | 0.25
10 | CGACATGTCCCGCTTCTTTCATTAATCCCTTAGCAACTGTTTAGCTATATACATTTACCTTTTAAGAGGAGGAAT | 0.236
11 | CGACATGTCCCGCTTCTTTCATTAATCCCTTAGCAACTGTTTGGCTATATACATTTACCTTTTAAGAGGAGGAAT | 0.204
12 | CGACATGTCCCGCTTCTTTCATTAATCCCTTAGCAACTGTTTTACTATATACATTTACCTTTTAAGAGGAGGAAT | 0.0875
13 | CGACATGTCCCGCTTCTTTCATTAATCCCTTAGCAACTGTTTTCCTATATACATTTACCTTTTAAGAGGAGGAAT | 0.214
14 | CGACATGTCCCGCTTCTTTCATTAATCCCTTAGCAACTGTTTTGATATATACATTTAACTTTTAAGAGGAGGAAT | 0.245
15 | CGACATGTCCCGCTTCTTTCATTAATCCCTTAGCAACTGTTTTGCTAAATACATTTACCTTTTAAGAGGAGGAAT | 0.149
16 | CGACATGTCCCGCTTCTTTCATTAATCCCTTAGCAACTGTTTTGCTAGATACATTTACCTTTTAAGAGGAGGAAT | 0.127
17 | CGACATGTCCCGCTTCTTTCATTAATCCCTTAGCAACTGTTTTGCTATATACAATTACCTTTTAAGAGGAGGAAT | 0.305
18 | CGACATGTCCCGCTTCTTTCATTAATCCCTTAGCAACTGTTTTGCTATATACACTTAACTTTTAAGAGGAGGAAT | 0.255
19 | CGACATGTCCCGCTTCTTTCATTAATCCCTTAGCAACTGTTTTGCTATATACATATACCTTTTAAGAGGAGGAAT | 0.267
20 | CGACATGTCCCGCTTCTTTCATTAATCCCTTAGCAACTGTTTTGCTATATACATTTAACTTTTAAGAGGAGGAAT | 0.237
21 | CGACATGTCCCGCTTCTTTCATTAATCCCTTAGCAACTGTTTTGCTATATACATTTACATTTTAAGAGGAGGAAT | 0.242

Row | Sequence | cleaved RNA product abundance
22 | CGACATGTCCCGCTTCTTTCATTAATCCCTTAGCAACTGTTTTGCTATATACATTTACCTTTTAAGAGGAGGAAT | 0.213
23 | CGACATGTCCCGCTTCTTTCATTAATCCCTTAGCAACTGTTTTGCTATATACATTTACTTTTTAAGAGGAGGAAT | 0.19
24 | CGACATGTCCCGCTTCTTTCATTAATCCCTTAGCAACTGTTTTGCTATATACTTTTACCTTTTAAGAGGAGGAAT | 0.166
25 | CGACATGTCCCGCTTCTTTCATTAATCCCTTAGCAACTGTTTTGCTATATAGATTTACCTTTTAAGAGGAGGAAT | 0.355
26 | CGACATGTCCCGCTTCTTTCATTAATCCCTTAGCAACTGTTTTGCTATATATATTTACCTTTTAAGAGGAGGAAT | 0.163
27 | CGACATGTCCCGCTTCTTTCATTAATCCCTTAGCAACTGTTTTGCTATATTCATTTACCTTTTAAGAGGAGGAAT | 0.153
28 | CGACATGTCCCGCTTCTTTCATTAATCCCTTAGCAACTGTTTTGCTGTATACATTTACCTTTTAAGAGGAGGAAT | 0.108
29 | CGACATGTCCCGCTTCTTTCATTAATCCCTTAGCAACTGTTTTTCTATATACATTTACCTTTTAAGAGGAGGAAT | 0.163
30 | CGACATGTCCCGCTTCTTTCATTAATCCCTTATCAACTGTTTTGCTATATACATTTACCTTTTAAGAGGAGGAAT | 0.249
31 | CGACATGTCCCGCTTCTTTCATTAATCCGAAAGCAACTGTTTTGCTATATACATTTACCTTTTAAGAGGAGGAAT | 0.39
32 | CGACATGTCCCGCTTCTTTCATTAATCCGACAGCAACTGTTTTGCTATATACATTTACCTTTTAAGAGGAGGAAT | 0.335
33 | CGACATGTCCCGCTTCTTTCATTAATCCGATAACAACTGTTTTGCTATATACATTTACCTTTTAAGAGGAGGAAT | 0.201
34 | CGACATGTCCCGCTTCTTTCATTAATCCGATACCAACTGTTTTGCTATATACATTTACCTTTTAAGAGGAGGAAT | 0.304
35 | CGACATGTCCCGCTTCTTTCATTAATCCGATAGAAACTGTTTTGCTATATACATTTACCTTTTAAGAGGAGGAAT | 0.302
36 | CGACATGTCCCGCTTCTTTCATTAATCCGATAGCAAATGTTTTGCTATATACATTTACCTTTTAAGAGGAGGAAT | 0.41
37 | CGACATGTCCCGCTTCTTTCATTAATCCGATAGCAACTCTTTTGCTATATACATTTACCTTTTAAGAGGAGGAAT | 0.19
38 | CGACATGTCCCGCTTCTTTCATTAATCCGATAGCAACTGCTTTGCTATATACATTTACCTTTTAAGAGGAGGAAT | 0.492
39 | CGACATGTCCCGCTTCTTTCATTAATCCGATAGCAACTGTTTAGCTATATACATTTACCTTTTAAGAGGAGGAAT | 0.822
40 | CGACATGTCCCGCTTCTTTCATTAATCCGATAGCAACTGTTTTACTATATACATTTACCTTTTAAGAGGAGGAAT | 0.459
41 | CGACATGTCCCGCTTCTTTCATTAATCCGATAGCAACTGTTTTCCTATATAAGCTTACCTTTTAAGAGGAGGAAT | 0.295
42 | CGACATGTCCCGCTTCTTTCATTAATCCGATAGCAACTGTTTTGATATATACATTTACCTTTTAAGAGGAGGAAT | 0.325

Row | Sequence | cleaved RNA product abundance
43 | CGACATGTCCCGCTTCTTTCATTAATCCGATAGCAACTGTTTTGCTAGATACATTTACCTTTTAAGAGGAGGAAT | 0.354
44 | CGACATGTCCCGCTTCTTTCATTAATCCGATAGCAACTGTTTTGCTATATACATCTACCTTTTAAGAGGAGGAAT | 0.88
45 | CGACATGTCCCGCTTCTTTCATTAATCCGATAGCAACTGTTTTGCTATATACATTGACCTTTTAAGAGGAGGAAT | 0.721
46 | CGACATGTCCCGCTTCTTTCATTAATCCGATAGCAACTGTTTTGCTATATACATTTAACTTTTAAGAGGAGGAAT | 0.63
47 | CGACATGTCCCGCTTCTTTCATTAATCCGATAGCAACTGTTTTGCTATATACATTTACCTTTTAAGAGGAGGAAT | 0.795
48 | CGACATGTCCCGCTTCTTTCATTAATCCGATAGCAACTGTTTTGCTATATACATTTACTTTTTAAGAGGAGGAAT | 0.547
49 | CGACATGTCCCGCTTCTTTCATTAATCCGATAGCAACTGTTTTGCTATATAGATTTACCTTTTAAGAGGAGGAAT | 1.02
50 | CGACATGTCCCGCTTCTTTCATTAATCCGATAGCAACTGTTTTGCTATTTACATTTACCTTTTAAGAGGAGGAAT | 0.189
51 | CGACATGTCCCGCTTCTTTCATTAATCCGATAGCAACTGTTTTGTTATATACATTTACCTTTTAAGAGGAGGAAT | 0.378
52 | CGACATGTCCCGCTTCTTTCATTAATCCGATAGCAACTGTTTTTCTATATACATTTACCTTTTAAGAGGAGGAAT | 0.413
53 | CGACATGTCCCGCTTCTTTCATTAATCCGATAGCAACTTTTTTGCTATATACATTTACCTTTTAAGAGGAGGAAT | 1.24
54 | CGACATGTCCCGCTTCTTTCATTAATCCGATATCAACTGTTTTGCTATATACATTTACCTTTTAAGAGGAGGAAT | 0.242
55 | CGACATGTCCCGCTTCTTTCATTAATCCGATCGCAACTGTTTTGCTAGATACATTTACCTTTTAAGAGGAGGAAT | 0.119
56 | CGACATGTCCCGCTTCTTTCATTAATCCGATGGCAACTGTTTTGCTATATACATTTACCTTTTAAGAGGAGGAAT | 0.74
57 | CGACATGTCCCGCTTCTTTCATTAATCCGATTGCAACTGTTTTGCTATATACATTTACCTTTTAAGAGGAGGAAT | 0.294
58 | CGACATGTCCCGCTTCTTTCATTAATCCGCAGGCAACTGTTTTTCTAAATACAAATACCTTTTAAGAGGAGGAAT | 0.213
59 | CGACATGTCCCGCTTCTTTCATTAATCCGCCAGCAACTGTTTTGCTATATAGATTTACCTTTTAAGAGGAGGAAT | 0.284
60 | CGACATGTCCCGCTTCTTTCATTAATCCGCGAGCAACTGTTTTGCTATATACATTTACCTTTTAAGAGGAGGAAT | 0.318
61 | CGACATGTCCCGCTTCTTTCATTAATCCGGTAACAACTGTTTTGCTATATACATTTACCTTTTAAGAGGAGGAAT | 0.34
